This note sets out measurements from patent US10883980 (TRUSTEES OF PRINCETON UNIVERSITY, dated 2021).

Series [1] concerns the molecule itself. The series can be described thus: Western blot (anti-HA) of lysates from cells expressing ORF3-HA; self-association. Background: In western blotting, separated proteins are transferred to a membrane and probed.
Series [2] deals with the molecule itself. The experiment in a line: Western blot (anti-HA) of HepG2C3A lysates; self-association.

Where a chain is given by its changes, count along the chain named.

B1: ORF3-HA (HA-tagged wild-type HEV ORF3 protein, Kernow C1/p6) (other)
chain: MGSPCALGLFCCCSSCFCLCCPRHRPASRLAVVVGGAAAVPAVVSGVTGLILSPSPSPIFIQPTPSPPISFHNPGLELALGSRPAPLAPLGVTSPSAPPLPPAVDLPQLGLRR
notes: Expressed by lentivirus in HepG2C3A cells and tested in cell lysate; also called HEV ORF3-HA; HA-tagged ORF3; not shown: HA tag; the name ORF3-HA puts it at the C-terminus
With B1, the binding result in series [1] is given as “binds”.

B2: ORF3[IFI59-61AAA], HA-tagged (other)
chain: B1 chain with I59A, F60A, I61A
notes: Alanine triplet mutant of Kernow C1/p6 ORF3; also called ORF3[IF159-61AAA]; not shown: HA tag
On to B2, for which the binding result in series [2] was “binds”.
